Three substances from paper PMC2185549 can be followed below.

Test [1] concerns the target Sec61 complex of C30-PK-RM (chymotrypsin 30 μg/ml) (canine (endogenous in canine pancreas microsomes)) (UniProt P38377). Kind of test: SEC. Background: SEC sorts molecules by how far they enter the pores of the column.
The target in test [2] is Sec61 complex of C5-PK-RM (chymotrypsin 5 μg/ml) (canine (endogenous in canine pancreas microsomes)) (UniProt P38377). In words: SEC.
In test [3] the target is Sec61 complex of T10-PK-RM (trypsin 10 μg/ml) (canine (endogenous in canine pancreas microsomes)) (UniProt P38377). In words: SEC.
Test [4] deals with Sec61 complex of Th50-PK-RM (thermolysin 50 μg/ml, on ice) (canine (endogenous in canine pancreas microsomes)) (UniProt P38377). In words: radioligand binding.
Test [5] concerns the target Sec61 complex of C1-PK-RM (chymotrypsin 1 μg/ml) (canine (endogenous in canine pancreas microsomes)) (UniProt P38377). In words: radioligand binding.
Test [6] has as its target Sec61 complex of C30-PK-RM (chymotrypsin 30 μg/ml) (canine (endogenous in canine pancreas microsomes)) (UniProt P38377). In words: radioligand binding.
Test [7] addresses Sec61 complex of T3-PK-RM (trypsin 3 μg/ml) (canine (endogenous in canine pancreas microsomes)) (UniProt P38377). Kind of test: radioligand binding.
The target in test [8] is Sec61 complex of C5-PK-RM (chymotrypsin 5 μg/ml) (canine (endogenous in canine pancreas microsomes)) (UniProt P38377). Kind of test: radioligand binding.

“ribosome-nascent chain complex bearing pPL86 (from UniProt P01239 1-86)”: in test [1], the fold less RNCs bound than undigested PK-RM was 2.7 fold and the percent of the bound RNCs insensitive to high salt extraction came to 80%. Further, in test [2], the fold decrease in RNC binding against undigested PK-RM came to 2 fold. In test [3], the fold less RNCs bound than undigested PK-RM was found to be 5 fold.
Turning to “canine ribosomes (nontranslating 80S ribosomes) (complex)”, the fold fewer ribosome binding sites than Th2-PK-RM in test [4] turned out to be 3 fold. Further, the fold lower affinity than the sites of undigested PK-RM in test [5] was less than 2 fold. In test [6], this substance yielded a fold defect in ribosome binding against undigested PK-RM of more than 10 fold and a fold lower affinity than the sites of undigested PK-RM of less than 2 fold. This substance had a percent of the high affinity ribosome binding sites of intact PK-RM in test [7] of 5%. In addition, in test [8], the fold lower affinity than the sites of undigested PK-RM is less than 2 fold and the fold reduction of ribosome binding against undigested PK-RM stood at 3 fold.
In test [1], “ribosome-nascent chain complex bearing ffLuc77” came in with a fold reduction of RNC binding relative to intact microsomes of 3.5 fold.
